Experiment [1] concerns the target T1, human CD3 (on human Pan-T cells or donor PBMC) (human, UniProt P07766 23-207; P04234 22-171; P09693 23-182; P20963 22-164). As to the kind of experiment: cell-based or functional assay.
Experiment [2] concerns the target T1, human CD3 (on human Pan-T cells or …). As to the kind of experiment: cell-based or functional assay. The source holds these as a separate data set.

T1 sequence (P07766 23-207, chain 1 of 4): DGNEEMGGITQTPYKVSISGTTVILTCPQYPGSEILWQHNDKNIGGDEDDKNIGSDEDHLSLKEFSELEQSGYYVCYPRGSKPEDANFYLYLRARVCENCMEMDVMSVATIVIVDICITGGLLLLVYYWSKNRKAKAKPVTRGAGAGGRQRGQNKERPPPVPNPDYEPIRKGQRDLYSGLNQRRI
T1 sequence (P04234 22-171, chain 2 of 4): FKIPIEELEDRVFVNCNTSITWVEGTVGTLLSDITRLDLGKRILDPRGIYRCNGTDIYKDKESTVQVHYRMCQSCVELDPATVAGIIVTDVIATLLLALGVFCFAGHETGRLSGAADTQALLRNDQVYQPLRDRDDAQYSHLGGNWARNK
T1 sequence (P09693 23-182, chain 3 of 4): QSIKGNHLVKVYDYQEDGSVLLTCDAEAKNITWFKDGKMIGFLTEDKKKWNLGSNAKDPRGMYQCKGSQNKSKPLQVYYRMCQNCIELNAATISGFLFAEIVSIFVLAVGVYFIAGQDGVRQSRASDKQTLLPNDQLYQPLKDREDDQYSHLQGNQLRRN
T1 sequence (P20963 22-164, chain 4 of 4): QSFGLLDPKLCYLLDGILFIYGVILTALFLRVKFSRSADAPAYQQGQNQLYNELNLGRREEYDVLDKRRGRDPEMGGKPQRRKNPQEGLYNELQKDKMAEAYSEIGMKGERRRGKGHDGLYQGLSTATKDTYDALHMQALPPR

B1: CD3 × CD33-BspAb115 (bispecific antibody)
chain 1: NFMLTQPHSVSESPGKTVTISCTRTSGSIASNYVQWYQQRPGSSPTTVIYEDNQRPSGVPDRFSGSIDSSSNSASLTISGLKTEDEAAYYCQSYDRSNRVFGCGTKLTVLGGGGSGGGGSGGGGSGGGGSQVQLQESGPGLVKPSETLSLTCTVSGGSISSYYWSWIRQPAGKCLEWIGRIYTSGSTKYNPSLKSRVTMSVDTSKNQFSLKLISVTAADTAVYFCARERIRDLYFDYWGQGTLVTVSSDKTHTCPPCPAPEFEGGPSVFLFPPKPKDTLMISRTPEVTCVVVDVSHEDPEVKFNWYVDGVEVHNAKTKPREEQYNSTYRVVSVLTVLHQDWLNGKEYKCKVSNKALPASIEKTISKAKGQPREPQVYTLPPCREEMTKNQVSLWCLVKGFYPSDIAVEWESNGQPENNYKTTPPVLDSDGSFFLYSKLTVDKSRWQQGNVFSCSVMHEALHNHYTQKSLSLSPGK
chain 2: EVQLVQSGAEVKKPGSSVKVSCKASGYTITDSNIHWVRQAPGQSLEWIGYIYPYNGGTDYNQKFKNRATLTVDNPTNTAYMELSSLRSEDTAFYYCVNGNPWLAYWGQGTLVTVSSASTKGPSVFPLAPSSKSTSGGTAALGCLVKDYFPEPVTVSWNSGALTSGVHTFPAVLQSSGLYSLSSVVTVPSSSLGTQTYICNVNHKPSNTKVDKRVEPKSCDKTHTCPPCPAPEFEGGPSVFLFPPKPKDTLMISRTPEVTCVVVDVSHEDPEVKFNWYVDGVEVHNAKTKPREEQYNSTYRVVSVLTVLHQDWLNGKEYKCKVSNKALPASIEKTISKAKGQPREPQVCTLPPSREEMTKNQVSLSCAVKGFYPSDIAVEWESNGQPENNYKTTPPVLDSDGSFFLVSKLTVDKSRWQQGNVFSCSVMHEALHNRFTQKSLSLSPGK
chain 3: DIQLTQSPSTLSASVGDRVTITCRASESLDNYGIRFLTWFQQKPGKAPKLLMYAASNQGSGVPSRFSGSGSGTEFTLTISSLQPDDFATYYCQQTKEVPWSFGQGTKVEVKRTVAAPSVFIFPPSDEQLKSGTASVVCLLNNFYPREAKVQWKVDNALQSGNSQESVTEQDSKDSTYSLSSTLTLSKADYEKHKVYACEVTHQGLSSPVTKSFNRGEC
B1: in experiment [1], the “RTCC Assay, Donor 0, EC50” value came to 0.054 nM; the “RTCC Assay, Donor 0, gMFI max” value turned out to be 38700 gMFI; the “RTCC Assay, Donor 1, EC50” value came to 0.006 nM; the “RTCC Assay, Donor 1, gMFI max” value was found to be 63000 gMFI. Further, in experiment [1], the “RTCC Assay, Donor 2, EC50” value amounted to 0.009 nM; the “RTCC Assay, Donor 2, gMFI max” value was 51900 gMFI; the “RTCC Assay, Donor 3, EC50” value worked out at 0.011 nM; the “RTCC Assay, Donor 3, gMFI max” value turned out to be 82700 gMFI. Moreover, in experiment [2], the “Cytokine Release Assay (IFNγ), Donor 0, EC50” value amounted to 0.0418 nM; the “Cytokine Release Assay (IFNγ), Donor 0, gMFI max” value is 1.6e+06 gMFI; the “Cytokine Release Assay (IFNγ), Donor 1, EC50” value was determined as 0.191 nM; the “Cytokine Release Assay (IFNγ), Donor 1, gMFI max” value came out at 45100 gMFI. Also, in experiment [2], the “Cytokine Release Assay (IFNγ), Donor 2, EC50” value amounted to 0.0396 nM; the “Cytokine Release Assay (IFNγ), Donor 2, gMFI max” value was found to be 66800 gMFI; the “Cytokine Release Assay (IFNγ), Donor 3, EC50” value was 0.0403 nM; the “Cytokine Release Assay (IFNγ), Donor 3, gMFI max” value is 475000 gMFI.

B2: CD3 × CD33-BspAb125 (bispecific antibody)
chain 1: not shown
chain 2: EVQLVQSGAEVKKPGSSVKVSCKASGYTITDSNIHWVRQAPGQSLEWIGYIYPYNGGTDYNQKFKNRATLTVDNPTNTAYMELSSLRSEDTAFYYCVNGNPWLAYWGQGTLVTVSSASTKGPSVFPLAPSSKSTSGGTAALGCLVKDYFPEPVTVSWNSGALTSGVHTFPAVLQSSGLYSLSSVVTVPSSSLGTQTYICNVNHKPSNTKVDKRVEPKSCDKTHTCPPCPAPEFEGGPSVFLFPPKPKDTLMISRTPEVTCVVVDVSHEDPEVKFNWYVDGVEVHNAKTKPREEQYNSTYRVVSVLTVLHQDWLNGKEYKCKVSNKALPASIEKTISKAKGQPREPQVCTLPPSREEMTKNQVSLSCAVKGFYPSDIAVEWESNGQPENNYKTTPPVLDSDGSFFLVSKLTVDKSRWQQGNVFSCSVMHEALHNRFTQKSLSLSPGK
chain 3: DIQLTQSPSTLSASVGDRVTITCRASESLDNYGIRFLTWFQQKPGKAPKLLMYAASNQGSGVPSRFSGSGSGTEFTLTISSLQPDDFATYYCQQTKEVPWSFGQGTKVEVKRTVAAPSVFIFPPSDEQLKSGTASVVCLLNNFYPREAKVQWKVDNALQSGNSQESVTEQDSKDSTYSLSSTLTLSKADYEKHKVYACEVTHQGLSSPVTKSFNRGEC
For the molecule B2, in experiment [1], the “RTCC Assay, Donor 0, EC50” value amounted to 0.166 nM; the “RTCC Assay, Donor 0, gMFI max” value was determined as 26700 gMFI; the “RTCC Assay, Donor 1, EC50” value amounted to 0.027 nM; the “RTCC Assay, Donor 1, gMFI max” value was found to be 65500 gMFI. In addition, in experiment [1], the “RTCC Assay, Donor 2, EC50” value stood at 0.049 nM; the “RTCC Assay, Donor 2, gMFI max” value was 54600 gMFI; the “RTCC Assay, Donor 3, EC50” value came out at 0.055 nM; the “RTCC Assay, Donor 3, gMFI max” value is 84200 gMFI. For the same molecule, in experiment [2], the “Cytokine Release Assay (IFNγ), Donor 0, EC50” value was ~12.3 nM; the “Cytokine Release Assay (IFNγ), Donor 0, gMFI max” value amounted to 958000 gMFI; the “Cytokine Release Assay (IFNγ), Donor 1, gMFI max” value worked out at 4940 gMFI; the “Cytokine Release Assay (IFNγ), Donor 2, EC50” value came to 0.103 nM. Moreover, in experiment [2], the “Cytokine Release Assay (IFNγ), Donor 2, gMFI max” value is 16200 gMFI; the “Cytokine Release Assay (IFNγ), Donor 3, EC50” value stood at 0.063 nM; the “Cytokine Release Assay (IFNγ), Donor 3, gMFI max” value was 170000 gMFI.

B3: High affinity Control (Control Humanized anti-CD3 (high affinity) scFv-Fc knob/TM with gemtuzumab arm) (bispecific antibody)
scFv: EVQLVESGGGLVQPGGSLRLSCAASGFTFSTYAMNWVRQAPGKGLEWVGRIRSKYNNYATYYADSVKGRFTISRDDSKNTLYLQMNSLRAEDTAVYYCVRHGNFGDSYVSWFAYWGQGTLVTVSSGKPGSGKPGSGKPGSGKPGSQAVVTQEPSLTVSPGGTVTLTCGSSTGAVTTSNYANWVQQKPGKSPRGLIGGTNKRAPGVPARFSGSLLGGKAALTISGAQPEDEADYYCALWYSNHWVFGGGTKLTVLGGGGSDKTHTCPPCPAPEFEGGPSVFLFPPKPKDTLMISRTPEVTCVVVDVSHEDPEVKFNWYVDGVEVHNAKTKPREEQYNSTYRVVSVLTVLHQDWLNGKEYKCKVSNKALPASIEKTISKAKGQPREPQVYTLPPCREEMTKNQVSLWCLVKGFYPSDIAVEWESNGQPENNYKTTPPVLDSDGSFFLYSKLTVDKSRWQQGNVFSCSVMHEALHNHYTQKSLSLSPGK
heavy: EVQLVQSGAEVKKPGSSVKVSCKASGYTITDSNIHWVRQAPGQSLEWIGYIYPYNGGTDYNQKFKNRATLTVDNPTNTAYMELSSLRSEDTAFYYCVNGNPWLAYWGQGTLVTVSSASTKGPSVFPLAPSSKSTSGGTAALGCLVKDYFPEPVTVSWNSGALTSGVHTFPAVLQSSGLYSLSSVVTVPSSSLGTQTYICNVNHKPSNTKVDKRVEPKSCDKTHTCPPCPAPEFEGGPSVFLFPPKPKDTLMISRTPEVTCVVVDVSHEDPEVKFNWYVDGVEVHNAKTKPREEQYNSTYRVVSVLTVLHQDWLNGKEYKCKVSNKALPASIEKTISKAKGQPREPQVCTLPPSREEMTKNQVSLSCAVKGFYPSDIAVEWESNGQPENNYKTTPPVLDSDGSFFLVSKLTVDKSRWQQGNVFSCSVMHEALHNRFTQKSLSLSPGK
light: DIQLTQSPSTLSASVGDRVTITCRASESLDNYGIRFLTWFQQKPGKAPKLLMYAASNQGSGVPSRFSGSGSGTEFTLTISSLQPDDFATYYCQQTKEVPWSFGQGTKVEVKRTVAAPSVFIFPPSDEQLKSGTASVVCLLNNFYPREAKVQWKVDNALQSGNSQESVTEQDSKDSTYSLSSTLTLSKADYEKHKVYACEVTHQGLSSPVTKSFNRGEC
Consider B3, for which, in experiment [1], the “RTCC Assay, Donor 0, EC50” value came to 0.908 nM; the “RTCC Assay, Donor 0, gMFI max” value was determined as 75100 gMFI; the “RTCC Assay, Donor 1, EC50” value turned out to be 0.04 nM; the “RTCC Assay, Donor 1, gMFI max” value was found to be 81700 gMFI. For the same molecule, in experiment [1], the “RTCC Assay, Donor 2, EC50” value is 0.039 nM; the “RTCC Assay, Donor 2, gMFI max” value was 82900 gMFI; the “RTCC Assay, Donor 3, EC50” value stood at 0.031 nM; the “RTCC Assay, Donor 3, gMFI max” value came to 87200 gMFI. Moreover, in experiment [2], the “Cytokine Release Assay (IFNγ), Donor 0, EC50” value was found to be 0.045 nM; the “Cytokine Release Assay (IFNγ), Donor 0, gMFI max” value was 2.82e+06 gMFI; the “Cytokine Release Assay (IFNγ), Donor 1, EC50” value stood at 6.99 nM; the “Cytokine Release Assay (IFNγ), Donor 1, gMFI max” value was determined as 912000 gMFI. For the same molecule, in experiment [2], the “Cytokine Release Assay (IFNγ), Donor 2, EC50” value amounted to 2.16 nM; the “Cytokine Release Assay (IFNγ), Donor 2, gMFI max” value was determined as 1.41e+06 gMFI; the “Cytokine Release Assay (IFNγ), Donor 3, EC50” value came to 0.126 nM; the “Cytokine Release Assay (IFNγ), Donor 3, gMFI max” value is 1.68e+06 gMFI.

B4: CD3 × CD33-BspAb71 (bispecific antibody)
chain 1: EVQLVESGGGLVKPGGSLRLSCAASGFTFSSYSMNWVRQAPGKCLEWVSSISRSSSYIYYADSVKGRFTLSRDNAKNSLYLQMNSLRGEDTAIYYCGRDGKGAIFLDYWGQGTLVTVSSGGGGSGGGGSGGGGSGGGGSSYELTQPPSVSVSPGQTARITCSGDALPKKYAYWYQQKSGQAPVLVIYEDSKRPSGIPERFSGSSSGTMATLTISGAQVEDEADYYCYSTHSSGNHRVFGCGTKLTVLDKTHTCPPCPAPEFEGGPSVFLFPPKPKDTLMISRTPEVTCVVVDVSHEDPEVKFNWYVDGVEVHNAKTKPREEQYNSTYRVVSVLTVLHQDWLNGKEYKCKVSNKALPASIEKTISKAKGQPREPQVYTLPPCREEMTKNQVSLWCLVKGFYPSDIAVEWESNGQPENNYKTTPPVLDSDGSFFLYSKLTVDKSRWQQGNVFSCSVMHEALHNHYTQKSLSLSPGK
chain 2: EVQLVQSGAEVKKPGSSVKVSCKASGYTITDSNIHWVRQAPGQSLEWIGYIYPYNGGTDYNQKFKNRATLTVDNPTNTAYMELSSLRSEDTAFYYCVNGNPWLAYWGQGTLVTVSSASTKGPSVFPLAPSSKSTSGGTAALGCLVKDYFPEPVTVSWNSGALTSGVHTFPAVLQSSGLYSLSSVVTVPSSSLGTQTYICNVNHKPSNTKVDKRVEPKSCDKTHTCPPCPAPEFEGGPSVFLFPPKPKDTLMISRTPEVTCVVVDVSHEDPEVKFNWYVDGVEVHNAKTKPREEQYNSTYRVVSVLTVLHQDWLNGKEYKCKVSNKALPASIEKTISKAKGQPREPQVCTLPPSREEMTKNQVSLSCAVKGFYPSDIAVEWESNGQPENNYKTTPPVLDSDGSFFLVSKLTVDKSRWQQGNVFSCSVMHEALHNRFTQKSLSLSPGK
chain 3: DIQLTQSPSTLSASVGDRVTITCRASESLDNYGIRFLTWFQQKPGKAPKLLMYAASNQGSGVPSRFSGSGSGTEFTLTISSLQPDDFATYYCQQTKEVPWSFGQGTKVEVKRTVAAPSVFIFPPSDEQLKSGTASVVCLLNNFYPREAKVQWKVDNALQSGNSQESVTEQDSKDSTYSLSSTLTLSKADYEKHKVYACEVTHQGLSSPVTKSFNRGEC
Regarding B4, in experiment [1], the “RTCC Assay, Donor 0, EC50” value was found to be 0.479 nM; the “RTCC Assay, Donor 0, gMFI max” value worked out at 23900 gMFI; the “RTCC Assay, Donor 1, EC50” value came out at 0.027 nM; the “RTCC Assay, Donor 1, gMFI max” value was 63000 gMFI. Moreover, in experiment [1], the “RTCC Assay, Donor 2, EC50” value worked out at 0.083 nM; the “RTCC Assay, Donor 2, gMFI max” value amounted to 57500 gMFI; the “RTCC Assay, Donor 3, EC50” value is 0.377 nM; the “RTCC Assay, Donor 3, gMFI max” value is 78600 gMFI. In experiment [2], the “Cytokine Release Assay (IFNγ), Donor 0, gMFI max” value is 812000 gMFI; the “Cytokine Release Assay (IFNγ), Donor 1, gMFI max” value stood at 5380 gMFI; the “Cytokine Release Assay (IFNγ), Donor 2, EC50” value worked out at 1.91 nM; the “Cytokine Release Assay (IFNγ), Donor 2, gMFI max” value is 27700 gMFI. In experiment [2], the “Cytokine Release Assay (IFNγ), Donor 3, gMFI max” value was 332000 gMFI.

The record behind these values is patent US20260167721A1 (ABLEXIS, published 2026).
